According to patent publication US20220062341A1 (KIRIN, published 2022):

Target: CD3 subunits (CD3E, CD3G, CD3D, CD3Z) (human, UniProt P07766 23-207; P09693 23-182; P04234 22-171; P20963 22-164)
Assay: cell-based or functional assay

CD3 subunits (CD3E, CD3G, CD3D, CD3Z), sequence (P07766 23-207, chain 1 of 4): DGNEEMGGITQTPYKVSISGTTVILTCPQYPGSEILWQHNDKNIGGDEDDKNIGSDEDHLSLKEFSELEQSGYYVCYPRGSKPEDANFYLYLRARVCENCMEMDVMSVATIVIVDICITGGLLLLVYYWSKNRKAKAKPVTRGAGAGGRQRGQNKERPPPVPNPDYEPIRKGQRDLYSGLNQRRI
CD3 subunits (CD3E, CD3G, CD3D, CD3Z), sequence (P09693 23-182, chain 2 of 4): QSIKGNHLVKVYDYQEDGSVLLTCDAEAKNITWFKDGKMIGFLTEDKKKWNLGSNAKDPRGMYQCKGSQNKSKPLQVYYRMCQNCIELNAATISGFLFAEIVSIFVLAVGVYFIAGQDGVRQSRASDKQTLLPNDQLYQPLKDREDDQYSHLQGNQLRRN
CD3 subunits (CD3E, CD3G, CD3D, CD3Z), sequence (P04234 22-171, chain 3 of 4): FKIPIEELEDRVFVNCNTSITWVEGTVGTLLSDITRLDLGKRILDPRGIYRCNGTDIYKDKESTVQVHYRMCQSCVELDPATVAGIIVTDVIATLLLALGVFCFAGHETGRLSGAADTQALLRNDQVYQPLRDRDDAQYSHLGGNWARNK
CD3 subunits (CD3E, CD3G, CD3D, CD3Z), sequence (P20963 22-164, chain 4 of 4): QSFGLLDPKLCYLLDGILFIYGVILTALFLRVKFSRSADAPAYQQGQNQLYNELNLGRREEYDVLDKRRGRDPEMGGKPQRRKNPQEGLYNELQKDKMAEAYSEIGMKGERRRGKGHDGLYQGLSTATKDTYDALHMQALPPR

Binder	CD3-recruiting activity (CD3-positive proportion, N=3), CD3-stably expressing 293T cells
modified TCR consisting of β10 and α3 (TCR) TCR alpha: NVSQSKDSDVYITDKTVLDMRSMDFKSNSAVAWSNKSDFACANAFNNSIIPEDTFFPSPESSCDVKLVEKSFETDTNLNFQNLSVIGFRILLLKVAGFNLLMTLRLWSS TCR beta: YGLSENDEWTQDRAKPVTQIVSAEAWGRADCGFTSESYQQGVLSATILYEILLGKATLYAVLVSALVLMAMVKRKDSRG	≥ 20%
modified TCR consisting of β11 and α3 (TCR) TCR alpha: NVSQSKDSDVYITDKTVLDMRSMDFKSNSAVAWSNKSDFACANAFNNSIIPEDTFFPSPESSCDVKLVEKSFETDTNLNFQNLSVIGFRILLLKVAGFNLLMTLRLWSS TCR beta: EWTQDRAKPVTQIVSAEAWGRADCGFTSESYQQGVLSATILYEILLGKATLYAVLVSALVLMAMVKRKDSRG	≥ 20%
modified TCR consisting of β10 and α5 (TCR) TCR alpha: LDMRSMDFKSNSAVAWSNKSDFACANAFNNSIIPEDTFFPSPESSCDVKLVEKSFETDTNLNFQNLSVIGFRILLLKVAGFNLLMTLRLWSS TCR beta: YGLSENDEWTQDRAKPVTQIVSAEAWGRADCGFTSESYQQGVLSATILYEILLGKATLYAVLVSALVLMAMVKRKDSRG	≥ 20%
modified TCR consisting of β10 and α6 (TCR) TCR alpha: KSNSAVAWSNKSDFACANAFNNSIIPEDTFFPSPESSCDVKLVEKSFETDTNLNFQNLSVIGFRILLLKVAGFNLLMTLRLWSS TCR beta: YGLSENDEWTQDRAKPVTQIVSAEAWGRADCGFTSESYQQGVLSATILYEILLGKATLYAVLVSALVLMAMVKRKDSRG	≥ 20%
modified TCR consisting of β10 and α9 (TCR) TCR alpha: FNNSIIPEDTFFPSPESSCDVKLVEKSFETDTNLNFQNLSVIGFRILLLKVAGFNLLMTLRLWSS TCR beta: YGLSENDEWTQDRAKPVTQIVSAEAWGRADCGFTSESYQQGVLSATILYEILLGKATLYAVLVSALVLMAMVKRKDSRG	≥ 20%
modified TCR consisting of β10 and α7 (TCR) TCR alpha: SNKSDFACANAFNNSIIPEDTFFPSPESSCDVKLVEKSFETDTNLNFQNLSVIGFRILLLKVAGFNLLMTLRLWSS TCR beta: YGLSENDEWTQDRAKPVTQIVSAEAWGRADCGFTSESYQQGVLSATILYEILLGKATLYAVLVSALVLMAMVKRKDSRG	≥ 20%
modified TCR consisting of β10 and α8 (TCR) TCR alpha: CANAFNNSIIPEDTFFPSPESSCDVKLVEKSFETDTNLNFQNLSVIGFRILLLKVAGFNLLMTLRLWSS TCR beta: YGLSENDEWTQDRAKPVTQIVSAEAWGRADCGFTSESYQQGVLSATILYEILLGKATLYAVLVSALVLMAMVKRKDSRG	≥ 20%
modified TCR consisting of β10 and α4 (TCR) TCR alpha: DVYITDKTVLDMRSMDFKSNSAVAWSNKSDFACANAFNNSIIPEDTFFPSPESSCDVKLVEKSFETDTNLNFQNLSVIGFRILLLKVAGFNLLMTLRLWSS TCR beta: YGLSENDEWTQDRAKPVTQIVSAEAWGRADCGFTSESYQQGVLSATILYEILLGKATLYAVLVSALVLMAMVKRKDSRG	≥ 20%
modified TCR consisting of β11 and α4 (TCR) TCR alpha: DVYITDKTVLDMRSMDFKSNSAVAWSNKSDFACANAFNNSIIPEDTFFPSPESSCDVKLVEKSFETDTNLNFQNLSVIGFRILLLKVAGFNLLMTLRLWSS TCR beta: EWTQDRAKPVTQIVSAEAWGRADCGFTSESYQQGVLSATILYEILLGKATLYAVLVSALVLMAMVKRKDSRG	≥ 20%
modified TCR consisting of β11 and α5 (TCR) TCR alpha: LDMRSMDFKSNSAVAWSNKSDFACANAFNNSIIPEDTFFPSPESSCDVKLVEKSFETDTNLNFQNLSVIGFRILLLKVAGFNLLMTLRLWSS TCR beta: EWTQDRAKPVTQIVSAEAWGRADCGFTSESYQQGVLSATILYEILLGKATLYAVLVSALVLMAMVKRKDSRG	≥ 20%
modified TCR consisting of β11 and α7 (TCR) TCR alpha: SNKSDFACANAFNNSIIPEDTFFPSPESSCDVKLVEKSFETDTNLNFQNLSVIGFRILLLKVAGFNLLMTLRLWSS TCR beta: EWTQDRAKPVTQIVSAEAWGRADCGFTSESYQQGVLSATILYEILLGKATLYAVLVSALVLMAMVKRKDSRG	≥ 20%
modified TCR consisting of β11 and α6 (TCR) TCR alpha: KSNSAVAWSNKSDFACANAFNNSIIPEDTFFPSPESSCDVKLVEKSFETDTNLNFQNLSVIGFRILLLKVAGFNLLMTLRLWSS TCR beta: EWTQDRAKPVTQIVSAEAWGRADCGFTSESYQQGVLSATILYEILLGKATLYAVLVSALVLMAMVKRKDSRG	≥ 20%
modified TCR consisting of β11 and α9 (TCR) TCR alpha: FNNSIIPEDTFFPSPESSCDVKLVEKSFETDTNLNFQNLSVIGFRILLLKVAGFNLLMTLRLWSS TCR beta: EWTQDRAKPVTQIVSAEAWGRADCGFTSESYQQGVLSATILYEILLGKATLYAVLVSALVLMAMVKRKDSRG	≥ 20%
modified TCR consisting of β11 and α8 (TCR) TCR alpha: CANAFNNSIIPEDTFFPSPESSCDVKLVEKSFETDTNLNFQNLSVIGFRILLLKVAGFNLLMTLRLWSS TCR beta: EWTQDRAKPVTQIVSAEAWGRADCGFTSESYQQGVLSATILYEILLGKATLYAVLVSALVLMAMVKRKDSRG	≥ 20%
modified TCR consisting of β10 and α10 (TCR) TCR alpha: IPEDTFFPSPESSCDVKLVEKSFETDTNLNFQNLSVIGFRILLLKVAGFNLLMTLRLWSS TCR beta: YGLSENDEWTQDRAKPVTQIVSAEAWGRADCGFTSESYQQGVLSATILYEILLGKATLYAVLVSALVLMAMVKRKDSRG	≥ 20%

The remaining lines, values ahead:

CD3-recruiting activity (CD3-positive proportion, N=3), CD3-stably expressing 293T cells	Binder
≥ 20%	modified TCR consisting of β12 and α3 (TCR) TCR alpha: NVSQSKDSDVYITDKTVLDMRSMDFKSNSAVAWSNKSDFACANAFNNSIIPEDTFFPSPESSCDVKLVEKSFETDTNLNFQNLSVIGFRILLLKVAGFNLLMTLRLWSS TCR beta: AKPVTQIVSAEAWGRADCGFTSESYQQGVLSATILYEILLGKATLYAVLVSALVLMAMVKRKDSRG
≥ 20%	modified TCR consisting of β12 and α4 (TCR) TCR alpha: DVYITDKTVLDMRSMDFKSNSAVAWSNKSDFACANAFNNSIIPEDTFFPSPESSCDVKLVEKSFETDTNLNFQNLSVIGFRILLLKVAGFNLLMTLRLWSS TCR beta: AKPVTQIVSAEAWGRADCGFTSESYQQGVLSATILYEILLGKATLYAVLVSALVLMAMVKRKDSRG
≥ 20%	modified TCR consisting of β12 and α5 (TCR) TCR alpha: LDMRSMDFKSNSAVAWSNKSDFACANAFNNSIIPEDTFFPSPESSCDVKLVEKSFETDTNLNFQNLSVIGFRILLLKVAGFNLLMTLRLWSS TCR beta: AKPVTQIVSAEAWGRADCGFTSESYQQGVLSATILYEILLGKATLYAVLVSALVLMAMVKRKDSRG
≥ 20%	modified TCR consisting of β12 and α7 (TCR) TCR alpha: SNKSDFACANAFNNSIIPEDTFFPSPESSCDVKLVEKSFETDTNLNFQNLSVIGFRILLLKVAGFNLLMTLRLWSS TCR beta: AKPVTQIVSAEAWGRADCGFTSESYQQGVLSATILYEILLGKATLYAVLVSALVLMAMVKRKDSRG
≥ 20%	modified TCR consisting of β12 and α9 (TCR) TCR alpha: FNNSIIPEDTFFPSPESSCDVKLVEKSFETDTNLNFQNLSVIGFRILLLKVAGFNLLMTLRLWSS TCR beta: AKPVTQIVSAEAWGRADCGFTSESYQQGVLSATILYEILLGKATLYAVLVSALVLMAMVKRKDSRG
≥ 20%	modified TCR consisting of β12 and α8 (TCR) TCR alpha: CANAFNNSIIPEDTFFPSPESSCDVKLVEKSFETDTNLNFQNLSVIGFRILLLKVAGFNLLMTLRLWSS TCR beta: AKPVTQIVSAEAWGRADCGFTSESYQQGVLSATILYEILLGKATLYAVLVSALVLMAMVKRKDSRG
≥ 20%	modified TCR consisting of β12 and α6 (TCR) TCR alpha: KSNSAVAWSNKSDFACANAFNNSIIPEDTFFPSPESSCDVKLVEKSFETDTNLNFQNLSVIGFRILLLKVAGFNLLMTLRLWSS TCR beta: AKPVTQIVSAEAWGRADCGFTSESYQQGVLSATILYEILLGKATLYAVLVSALVLMAMVKRKDSRG
≥ 20%	modified TCR consisting of β11 and α10 (TCR) TCR alpha: IPEDTFFPSPESSCDVKLVEKSFETDTNLNFQNLSVIGFRILLLKVAGFNLLMTLRLWSS TCR beta: EWTQDRAKPVTQIVSAEAWGRADCGFTSESYQQGVLSATILYEILLGKATLYAVLVSALVLMAMVKRKDSRG
≥ 20%	modified TCR consisting of β12 and α10 (TCR) TCR alpha: IPEDTFFPSPESSCDVKLVEKSFETDTNLNFQNLSVIGFRILLLKVAGFNLLMTLRLWSS TCR beta: AKPVTQIVSAEAWGRADCGFTSESYQQGVLSATILYEILLGKATLYAVLVSALVLMAMVKRKDSRG

Target: CD3E (human, UniProt P07766 23-207)
Sequence (P07766 23-207): as the sequence (P07766 23-207, chain 1 of 4) above
Assay: cell-based or functional assay

CD3E-positive proportion [%] (Avg, n = 2), CD3-stably expressing 293T cells	Binder
86.5%	modified TCR ba10 (TCR) TCR alpha: IPEDTFFPSPESSCDVKLVEKSFETDTNLNFQNLSVIGFRILLLKVAGFNLLMTLRLWSS TCR beta: EDLKNVFPPEVAVFEPSEAEISHTQKATLVCLATGFYPDHVELSWWVNGKEVHSGVSTDPQPLKEQPALNDSRYCLSSRLRVSATFWQNPRNHFRCQVQFYGLSENDEWTQDRAKPVTQIVSAEAWGRADCGFTSESYQQGVLSATILYEILLGKATLYAVLVSALVLMAMVKRKDSRG
